Source: the supplement of paper PMC10567573

B1: TFE3 (parent)
chain: ELPNIKREISETEAKALLKERQKK
B2: FUT8 (parent)
chain: YPSYKVREKIETVKYPTYPEAEK

Variants of: B1
Assay: protein stability index of a GFP-peptide fusion (GPS, HEK-293T) (PSI 1-6); higher = more stable
Details: c terminus: a fixed tail appended
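Further: lentivirally expressed fusions sorted by FACS into six bins by GFP to DsRed ratio, PSI derived from sequencing read proportions per bin multiplied by bin number.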

Question: With ELPNIKREISETEWKALLKERQKK [A14W] as the variant, how does the protein stability index read?
Answer: 2.69

Question: Which protein stability index does the source give for ELPNIKREISETEVKALLKERQKK [A14V] here?
Answer: 2.45

Question: For ELYNIKREISETEAKALLKERQKK [P3Y], which protein stability index is on record?
Answer: 3.04

Question: With ELVNIKREISETEAKALLKERQKK [P3V] as the variant, how does the protein stability index read?
Answer: 2.32

Question: For ELKNIKREISETEAKALLKERQKK [P3K], which protein stability index is on record?
Answer: 3.82

Question: For ELPNIKREISETEAKALLKEHQKK [R21H], which protein stability index is on record?
Answer: 2.63

Question: For ELPNIKREISETEAKALLKEIQKK [R21I], which protein stability index is on record?
Answer: 2.66

Question: With ELPNIKREISETEAKALLKEFQKK [R21F] as the variant, how does the protein stability index read?
Answer: 2.38

Question: For ELPNIKREISETEAKNLLKERQKK [A16N], which protein stability index is on record?
Answer: 4.09

Question: With ELPNIKREISETEAKELLKERQKK [A16E] as the variant, how does the protein stability index read?
Answer: 4.09

Question: Which protein stability index does the source give for ELPNIKREISETEAKLLLKERQKK [A16L] here?
Answer: 2.34

Question: With EYPNIKREISETEAKALLKERQKK [L2Y] as the variant, how does the protein stability index read?
Answer: 4.18

Question: With EGPNIKREISETEAKALLKERQKK [L2G] as the variant, how does the protein stability index read?
Answer: 5.23

Question: With ELPNIKREISETEALALLKERQKK [K15L] as the variant, how does the protein stability index read?
Answer: 2.08

Question: For ELPNIKREISETEAMALLKERQKK [K15M], which protein stability index is on record?
Answer: 2.41

Question: With ELPNIKREISETVAKALLKERQKK [E13V] as the variant, how does the protein stability index read?
Answer: 3.45

Question: With ELPNIKREISETNAKALLKERQKK [E13N] as the variant, how does the protein stability index read?
Answer: 3.83

Question: Which protein stability index does the source give for ELPNIKREISETIAKALLKERQKK [E13I] here?
Answer: 3.33

Question: Which protein stability index does the source give for ELPNIKREISETKAKALLKERQKK [E13K] here?
Answer: 3.83

Question: Which protein stability index does the source give for ELPNIKREISEFEAKALLKERQKK [T12F] here?
Answer: 3.78

Question: For ELPNIKREISEQEAKALLKERQKK [T12Q], which protein stability index is on record?
Answer: 4.67

Question: Which protein stability index does the source give for ELPNIKREISEAEAKALLKERQKK [T12A] here?
Answer: 2.86

Question: Which protein stability index does the source give for ELPNIKREHSETEAKALLKERQKK [I9H] here?
Answer: 5.21

Question: For ELPNIKRELSETEAKALLKERQKK [I9L], which protein stability index is on record?
Answer: 2.66

Question: With ELPNIKREISETEAKALIKERQKK [L18I] as the variant, how does the protein stability index read?
Answer: 3.06

Question: Which protein stability index does the source give for ELPNIKREISETEAKALYKERQKK [L18Y] here?
Answer: 2.92

Question: Which protein stability index does the source give for ELPNIKREISETEAKALFKERQKK [L18F] here?
Answer: 2.28

Question: Which protein stability index does the source give for ELPNIKREISETEAKALAKERQKK [L18A] here?
Answer: 2.67

Question: For ELPNIKREISETEAKALNKERQKK [L18N], which protein stability index is on record?
Answer: 2.4

Question: For ELPNIKREISETEAKADLKERQKK [L17D], which protein stability index is on record?
Answer: 2.13

Question: With ELPNIKREISETEAKAPLKERQKK [L17P] as the variant, how does the protein stability index read?
Answer: 3.56

Question: Which protein stability index does the source give for ELPNIKREISETEAKAYLKERQKK [L17Y] here?
Answer: 2.48

Question: For ELPNIKREISETEAKAQLKERQKK [L17Q], which protein stability index is on record?
Answer: 2.56

Question: With ELPNIKREISETEAKAFLKERQKK [L17F] as the variant, how does the protein stability index read?
Answer: 2.38

Question: With ELPNIKREISETEAKANLKERQKK [L17N] as the variant, how does the protein stability index read?
Answer: 2.56

Question: Which protein stability index does the source give for ELPNIKREISETEAKALLIERQKK [K19I] here?
Answer: 2.84

Question: With ELPNIKREISETEAKALLLERQKK [K19L] as the variant, how does the protein stability index read?
Answer: 2.84

Question: With ELPNIKREISETEAKALLDERQKK [K19D] as the variant, how does the protein stability index read?
Answer: 2.52

Question: For ELPNIKREISETEAKALLGERQKK [K19G], which protein stability index is on record?
Answer: 1.71

Question: Which protein stability index does the source give for ELPNIKREISETEAKALLWERQKK [K19W] here?
Answer: 2.29

Question: With ELPNKKREISETEAKALLKERQKK [I5K] as the variant, how does the protein stability index read?
Answer: 4.58

Question: Which protein stability index does the source give for ELPNMKREISETEAKALLKERQKK [I5M] here?
Answer: 2.23

Question: For ELPNSKREISETEAKALLKERQKK [I5S], which protein stability index is on record?
Answer: 4.98

Question: For ELPNIKREISETEAKALLKERQKH [K24H], which protein stability index is on record?
Answer: 2.2

Question: For ELPNIKREISETEAKALLKERQKP [K24P], which protein stability index is on record?
Answer: 2.17

Question: For ELPNIKREISETEAKALLKERQKS [K24S], which protein stability index is on record?
Answer: 2.28

Question: Which protein stability index does the source give for ELPNIKNEISETEAKALLKERQKK [R7N] here?
Answer: 2.58

Question: For ELPNIKKEISETEAKALLKERQKK [R7K], which protein stability index is on record?
Answer: 2.44

Question: Which protein stability index does the source give for ELPNIKEEISETEAKALLKERQKK [R7E] here?
Answer: 2.46

Question: For YLPNIKREISETEAKALLKERQKK [E1Y], which protein stability index is on record?
Answer: 2.82

Question: For FLPNIKREISETEAKALLKERQKK [E1F], which protein stability index is on record?
Answer: 2.21

Question: For VLPNIKREISETEAKALLKERQKK [E1V], which protein stability index is on record?
Answer: 3.57

Question: Which protein stability index does the source give for ELPNIKREISETEAKALLKWRQKK [E20W] here?
Answer: 2.82

Question: With ELPNIKREISETEAKALLKPRQKK [E20P] as the variant, how does the protein stability index read?
Answer: 2.52

Question: With ELPNIKREISETEAKALLKHRQKK [E20H] as the variant, how does the protein stability index read?
Answer: 2.9

Question: With ELPNIKREISETEAKALLKLRQKK [E20L] as the variant, how does the protein stability index read?
Answer: 2.44

Question: With ELPNIKREISETEAKALLKFRQKK [E20F] as the variant, how does the protein stability index read?
Answer: 2.03

Question: For ELPNIKREISETEAKALLKNRQKK [E20N], which protein stability index is on record?
Answer: 2.9

Question: For ELPNIKREIHETEAKALLKERQKK [S10H], which protein stability index is on record?
Answer: 2.82

Question: With ELPNIKREIMETEAKALLKERQKK [S10M] as the variant, how does the protein stability index read?
Answer: 2.12

Question: For ELPNIKREISETEAKALLKERQIK [K23I], which protein stability index is on record?
Answer: 2.34

Question: Which protein stability index does the source give for ELPNIKREISETEAKALLKERQSK [K23S] here?
Answer: 2.8

Question: For ELPNIKREISTTEAKALLKERQKK [E11T], which protein stability index is on record?
Answer: 3.25

Question: For ELPNIKREISPTEAKALLKERQKK [E11P], which protein stability index is on record?
Answer: 4.21

Question: With ELPNIKREISSTEAKALLKERQKK [E11S] as the variant, how does the protein stability index read?
Answer: 3.61

Question: With ELPNIKREISWTEAKALLKERQKK [E11W] as the variant, how does the protein stability index read?
Answer: 2.91

Question: For ELPCIKREISETEAKALLKERQKK [N4C], which protein stability index is on record?
Answer: 2.32

Question: For ELPDIKREISETEAKALLKERQKK [N4D], which protein stability index is on record?
Answer: 2.75

Question: With ELPWIKREISETEAKALLKERQKK [N4W] as the variant, how does the protein stability index read?
Answer: 3.35

Question: For ELPQIKREISETEAKALLKERQKK [N4Q], which protein stability index is on record?
Answer: 2.02

Question: With ELPFIKREISETEAKALLKERQKK [N4F] as the variant, how does the protein stability index read?
Answer: 3.14

Question: With ELPPIKREISETEAKALLKERQKK [N4P] as the variant, how does the protein stability index read?
Answer: 3.76

Question: For ELPHIKREISETEAKALLKERQKK [N4H], which protein stability index is on record?
Answer: 2.84

Question: With ELPNIKRNISETEAKALLKERQKK [E8N] as the variant, how does the protein stability index read?
Answer: 3.46

Question: Which protein stability index does the source give for ELPNIKRCISETEAKALLKERQKK [E8C] here?
Answer: 3.4

Question: With ELPNIKRRISETEAKALLKERQKK [E8R] as the variant, how does the protein stability index read?
Answer: 4.32

Question: For ELPNIKRWISETEAKALLKERQKK [E8W], which protein stability index is on record?
Answer: 2.21

Question: With ELPNIKRGISETEAKALLKERQKK [E8G] as the variant, how does the protein stability index read?
Answer: 3.09

Question: With ELPNICREISETEAKALLKERQKK [K6C] as the variant, how does the protein stability index read?
Answer: 2.33

Question: Which protein stability index does the source give for ELPNIHREISETEAKALLKERQKK [K6H] here?
Answer: 2.49

Question: Which protein stability index does the source give for ELPNIGREISETEAKALLKERQKK [K6G] here?
Answer: 2.81

Question: For ELPNILREISETEAKALLKERQKK [K6L], which protein stability index is on record?
Answer: 2.83

Question: For ELPNIPREISETEAKALLKERQKK [K6P], which protein stability index is on record?
Answer: 3.89

Question: For ELPNISREISETEAKALLKERQKK [K6S], which protein stability index is on record?
Answer: 2.5

Question: With ELPNIKREISETEAKALLKEREKK [Q22E] as the variant, how does the protein stability index read?
Answer: 2

Question: Which protein stability index does the source give for ELPNIKREISETEAKALLKERPKK [Q22P] here?
Answer: 2.34

Question: For ELPNIKREISETEAKALLKERWKK [Q22W], which protein stability index is on record?
Answer: 2.4

Question: Which protein stability index does the source give for ELPNIKREISETEAKALLKERDKK [Q22D] here?
Answer: 2.11

Question: Which protein stability index does the source give for ELPNIKREISETEAKALLKERRKK [Q22R] here?
Answer: 2.9

Variants of: B2
Assay: as above
Details: c terminus: native

Question: With YPVYKVREKIETVKYPTYPEAEK [S3V] as the variant, how does the protein stability index read?
Answer: 3.66

Question: With YPAYKVREKIETVKYPTYPEAEK [S3A] as the variant, how does the protein stability index read?
Answer: 4.02

Question: For YPPYKVREKIETVKYPTYPEAEK [S3P], which protein stability index is on record?
Answer: 3.35

Question: For YPLYKVREKIETVKYPTYPEAEK [S3L], which protein stability index is on record?
Answer: 4.7

Question: With YPHYKVREKIETVKYPTYPEAEK [S3H] as the variant, how does the protein stability index read?
Answer: 4.39

Question: Which protein stability index does the source give for YPMYKVREKIETVKYPTYPEAEK [S3M] here?
Answer: 4.08
